Reference: the NTF2 design screens of Basanta et al. (2020)

assay: protease stability score; higher = more stable; yeast display proteolysis, trypsin and chymotrypsin;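 note: relative to predicted unfolded state with 0 unfolded-like and 1 meaning tenfold more protease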

Sequence	protease stability score
DDMERHARKALRVLIESLMTGDEDDIYRMLDPHVRYIFDGVDFHGRERTKETLERLSREFGLSRVHTELKDSKVYDGRLELHLEVNVDGRRRTVIVHVVKIDGKWYVEELRVQ	1.26
DDEKRFTHEAIKTSEEVMKTGDERLMRELMDPNVRSEIDGRDVHGMDIITEWLSHIRIEDIKLRRITVIDGVITIRGEVYFEQGDKIVTFDVTIIYEKIDGRWLLRSLHVK	1.53
TEDDRDFKLALELVEHHIKTGDEDDMSRLADPHVRIDDENETHHGREEFEEFVHRMIKRFKNIKWELKRTESQGDKIRIDFRIHVGDKTLRLIIIAEKVDGRWLIHTVIIN	1.35
DEDKEDTDKMIEILIRVARTGDEDSLLHMLDPNVRIVVNGREEHGRDVAHRFLKEIRIHDMEVKRVEIIGNKVKIDGRVDGDFNGVRHKTETEIITEKINGKWVIRSIIFR	2.1
DEELKALEDLSKKEIEAHLTGDEDTLVQLADPNMKILYNGREFHGWNVWKKISSKMIEEMRLRRVELEHVHVINGQIDSHGILDVEVNGRRVKERMHIVMLKVNGRWLIHSVEYR	1.27
SEEEKDNKLAIHLTMEILRTGDEEHSKKMIDPDARHQQGDKELHGMEEVSTEIMEIWRRYKGVKFEVKRVHMQGEFIKIKVDLHVNGQTLDVIIVLYKVDGRWTIHSIHVH	1.48
TEKEELYRKIYELLENLLFTGDEHAWRNNMDPHVKILLNIDGKIHDLHGWHAWHLVLRLLGIDHMEFKDFHVQGDKFHLELTVDFDGREHIMRVDIIVVNGKITSVRVSIE	1.37
SEMHEDAEEVLRRISHYLNTGDEDSFLEMADPHTRIRVGNKEYIGREWSLVLIEKVKGARQEIRIELKDVNLVNGRLEVDGRFRLHYRFNGKTVDEHRNVIVYSYKFNGRWEIKSEQVD	1.49
SDLHRDIQRLLEQVLRSRETGDEDHLEKYADPHARSVFDGVEFHGWEELLRVIRHIRIRRLRLTHIEVQGDKVELDLELDGEINGQRVRVHLEIHSEKINGRWIMTEVVIE	1.21
SEEERDLREALEEHKRTLQTGDEELWNKLFDPHARSDINGVEFHGMEDISRHIYKFFIDFGFKHVRFKHVELYGDKLVMRGSLNINGVDLDIEIISRKIDGRWLIHHWIIR	0.859
SEDEEIVKKMSKEELEFWRTGNEHELSKLFDPDVLLFVGEKIFHGREVFKHFKERVDHFHEFRDKHIQVIDGRIHIDSEVNSRFNGRQLSEDVRIQALKFDGRWHYKSIHML	0.336
SEQHEITEHIARIILEFLTTGDFTEFFKMLDPHVRITVGDKFNVGRHVFWHLWQELFDHIRIRHISLKHIHIVDGRLHLDTRVHGKVDGKETTLDQHIHIEIINGRITSVNLEYR	2.12
SEEMHWAKEFYKALLKSWRTGDEELIKDLMDPHVRLHYGDKELHGREEFVRFIQEHVSRVDHIDIHIDDMKLQGNKVHVDGIIIIHVNGRDINIRSEYIIYKVDGRWHLETVHIH	1.59
SDLEKETEELTRLFLENLVTGDEKTARELIDPHAMTDIGDFHIHGRDRTFRHIEELWRHWGVDRIRIHHDHIDIQGNKSYIEGTIHINGQSRKVHLIIIVFNGRIDKVRMHIR	1.36
SEEEEDTERAMELAHHLLFTGNWEIMLKLFDPHMRLEFNGVDNHGREQVIREIRERIKLLGITNIELEPEEVRVQGDKVILHSRVDYNGKHYETEFVAEKVDGRWFIRSMRYE	1.3
SEEEKELEEALKIQEEFWRTGDEHSLRELADPHARVHIDGRDLHGREFWSMLSNQLRIEHIEVKSVELVDGRLEADVHVTGRYNGRDVKTRMRLEIVKINGVWYLESTEIN	0.407
SHLKEDLRRALEKELQDLRTGDEEKIVRMMDPNVRLHIDGVELHGRDWLSRYAKEMRTEHIELRRFETQGNKIHIDTEVDLRYGDFRRDVHVEIIAIKVDGRWVKHETEVR	-0.081
SELEELTEEAVKHILHIWETGDEEMSHDLVDPHVRVHVNGQKYHGRENAVEHISKLKGAKWHLRRFEVIDGKIHVDGQFHFNGRHHEVRVVIRKINGRWLIHEIQID	1.77
SETDEDFKRLVEEFIRLFLTGDEDQLLELHDPNTRVEVGDFEEHGMEKWSRFLEEERRRVKGLKLVREDEKIEVQGNKLHLILHGAIEFDGVRLFTRIIVHAEKVNGKWVIRRFKMETR	1.54
SEEDRYDKKMLERLNEAEHTGDWRLFLRQADPDPRTVIGDKELHGWEILEEFLLKIHEQYKGMRFEYRDIDVQGDKIRIEYDLFINGKFTETILIADKVNGKWIIKSHELR	0.898
DEDKHLSDYAMELELHAIKTGDEDLWRELIDPNARLIVGDKTFHGWEHLVTFMVSLGVKHVKLKDLKIQGDKMHSKLEIEFDGRTRTYHVVSLKVDGRWVIESVEVR	1.06
TEEEKHARLVKEHIVEILKTGDEREWMERADPNMYMTVGNKEQHGREQVMHLIERLLKELGIKHSHIKRLELQGDKVHLDVELNFNGVTRDSRLIFIVINGRFHEVIIIIH	0.947
DEEEELTRLALEWLLKVSKTGDERLFREEFDPNVKLDINGRDFHGREEAVRVWLKFVHDAGFKHIEIERVLSFDGRLHLHGVEHIGDKEVETHILTEKFDGKWVMRSIKIN	0.301
SELEHLTEEVAERVLRVLLTGNEHWLDRLLDPHVRLHVNGQDFHGRENVKRWMHELGVDHREIEIEDYRSINGVFIVWGHIRIHQGEKEIKFKSEHIFVVFNGKMQSMEIRIL	1.58
DERSHVLEEVLKKTSRANETGNEEIIEENLDPNTRFDWNGVIIHGREQWLELVKHMRISIHHFDTRDIREFNGRADVRGDMDSVIEVDGRRLRLDTHVIYHATKVDGRWVITEIRIH	0.41
